Measurements as given in IntAct's records for PubMed 18273061.

B1: Protein sprouty homolog 2 (Homo sapiens), O43597 (parent)
chain: MEARAQSGNGSQPLLQTPRDGGRQRGEPDPRDALTQQVHVLSLDQIRAIRNTNEYTEGPTVVPRPGLKPAPRPSTQHKHERLHGLPEHRQPPRLQHSQVHSSARAPLSRSISTVSSGSRSSTRTSTSSSSSEQRLLGSSFSSGPVADGIIRVQPKSELKPGELKPLSKEDLGLHAYRCEDCGKCKCKECTYPRPLPSDWICDKQCLCSAQNVIDYGTCVCCVKGLFYHCSNDDEDNCADNPCSCSQSHCCTRWSAMGVMSLFLPCLWCYLPAKGCLKLCQGCYDRVNRPGCRCKNSNTVCCKVPTVPPRNFEKPT
B2: Vascular endothelial growth factor receptor 1 (Homo sapiens), P17948 (parent)
chain: MVSYWDTGVLLCALLSCLLLTGSSSGSKLKDPELSLKGTQHIMQAGQTLHLQCRGEAAHKWSLPEMVSKESERLSITKSACGRNGKQFCSTLTLNTAQANHTGFYSCKYLAVPTSKKKETESAIYIFISDTGRPFVEMYSEIPEIIHMTEGRELVIPCRVTSPNITVTLKKFPLDTLIPDGKRIIWDSRKGFIISNATYKEIGLLTCEATVNGHLYKTNYLTHRQTNTIIDVQISTPRPVKLLRGHTLVLNCTATTPLNTRVQMTWSYPDEKNKRASVRRRIDQSNSHANIFYSVLTIDKMQNKDKGLYTCRVRSGPSFKSVNTSVHIYDKAFITVKHRKQQVLETVAGKRSYRLSMKVKAFPSPEVVWLKDGLPATEKSARYLTRGYSLIIKDVTEEDAGNYTILLSIKQSNVFKNLTATLIVNVKPQIYEKAVSSFPDPALYPLGSRQILTCTAYGIPQPTIKWFWHPCNHNHSEARCDFCSNNEESFILDADSNMGNRIESITQRMAIIEGKNKMASTLVVADSRISGIYICIASNKVGTVGRNISFYITDVPNGFHVNLEKMPTEGEDLKLSCTVNKFLYRDVTWILLRTVNNRTMHYSISKQKMAITKEHSITLNLTIMNVSLQDSGTYACRARNVYTGEEILQKKEITIRDQEAPYLLRNLSDHTVAISSSTTLDCHANGVPEPQITWFKNNHKIQQEPGIILGPGSSTLFIERVTEEDEGVYHCKATNQKGSVESSAYLTVQGTSDKSNLELITLTCTCVAATLFWLLLTLFIRKMKRSSSEIKTDYLSIIMDPDEVPLDEQCERLPYDASKWEFARERLKLGKSLGRGAFGKVVQASAFGIKKSPTCRTVAVKMLKEGATASEYKALMTELKILTHIGHHLNVVNLLGACTKQGGPLMVIVEYCKYGNLSNYLKSKRDLFFLNKDAALHMEPKKEKMEPGLEQGKKPRLDSVTSSESFASSGFQEDKSLSDVEEEEDSDGFYKEPITMEDLISYSFQVARGMEFLSSRKCIHRDLAARNILLSENNVVKICDFGLARDIYKNPDYVRKGDTRLPLKWMAPESIFDKIYSTKSDVWSYGVLLWEIFSLGGSPYPGVQMDEDFCSRLREGMRMRAPEYSTPEIYQIMLDCWHRDPKERPRFAELVEKLGDLLQANVQQDGKDYIPINAILTGNSGFTYSTPAFSEDFFKESISAPKFNSGSSDDVRYVNAFKFMSLERIKTFEELLPNATSMFDDYQGDSSTLLASPMLKRFTWTDSKPKASLKIDLRVTSKSKESGLSDVSRPSFCHSSCGHVSEGKRRFTYDHAELERKIACCSPPPDYNSVVLYSTPPI

Variants of: B1
Conditions: with cbl_human CBL

effect of a mutation on the interaction | Variant
decreasing interaction | P59A

Variants of: B1
Conditions: with cbl_human CBL
Remark: another data set of the same source

effect of a mutation on the interaction | Variant
disrupting interaction | Y55F

Variants of: B1
Conditions: with cbl_human CBL
Remark: another data set of the same source

effect of a mutation on the interaction | Variant
disrupting interaction | N53A

Variants of: B2
Conditions: with cbl_human CBL

effect of a mutation on the interaction | Variant
increasing interaction | V1331N

Variants of: B2
Conditions: with cbl_human CBL
Remark: another data set of the same source

effect of a mutation on the interaction | Variant
increasing interaction | L1332R
